This note sets out measurements from article PMC7914713, “Elucidating the Importance of DOT1L Recruitment in MLL-AF9 Leukemia and Hematopoiesis” (Cancers, 2021).

As a reminder, the Ki is a measure of affinity in units of concentration, obtained from inhibition or displacement. The low end stands for a stronger hold on the target, the high end for a looser hold on the target.

The test concerns the target T1, MBP-AF9 (MBP carrier left out. The construct limits are not given; the C-terminal ANC1 homology domain (AHD), named as the DOT1L-binding domain, is taken by convention as about 500-568.).
T1 chain: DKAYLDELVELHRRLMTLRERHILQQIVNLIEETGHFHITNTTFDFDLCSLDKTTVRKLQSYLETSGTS
The test is described as follows: fluorescence polarisation; competitive: serial dilutions of peptide with fixed MBP-AF9 (200 nM) and N-Flu-DOT1L (10 nM); 100 mM NaH2PO4, 150 mM NaCl, 0.1% β-ME, 0.01% Triton X-100; room temperature, 3 h. Conditions: both partners purified.

B1: DOT1L WT 10mer (865–874) peptide (peptide, UniProt Q8TEK3 865-874, looked up)
peptide: LPISIPLSTV
notes: the DOT1L constructs of the cell lines are human; also called 10mer peptide from residues 865–874; 10mer DOT1L peptide; source: synthetic peptide
Molecule B1 came in with a Ki of 20 nM.
